Source: patent US11906524B2, “Urea biosensors and uses thereof” (Duke University, priority 2015, dated 2024)
Marks after values point to notes of the source that are not given here.

Assays:
[1] = Thermal stability of purified UBP candidates (SYPRO Orange thermal melt, Roche LightCycler); type: physicochemical; conditions: apo-protein; SYPRO Orange monitors unfolded protein
Description: The urea-binding properties of these leads were determined experimentally (Table 4). These experiments comprise four successive steps: • 1. Synthetic gene construction. […] Heterologous protein expression of the homologues in E. coli. […] Verification of urea binding.
Analysis of urea-binding properties using thermal melts.

[2] = Urea titration of emission intensity spectra (Nanodrop3300) with ratiometric analysis, singly labeled conjugates; type: binding; set-up: key: m, monochromatic; d, dichromatic (i.e. spectral shape changes); 0, no change; conditions: urea response
From the text: Determination of emission intensity spectra.
Ratiometric analysis of urea binding. […] 2
For a single urea-binding site, the fractional saturation is given by
[formula] where [L] is the ligand (urea) concentration and Kd the dissociation constant, ^trueKd for ytrue.
[formula] where ^appIλ2 and ^satIλ2 are the emission intensities of the monochromatic signal at wavelength λ2 of the ligand-free and ligand-bound protein, respectively.

[3] = Temperature- and urea-dependent fluorescence landscapes of fluorescent conjugates (Roche LightCycler); type: binding; set-up: key: y, yes; n, no; conditions: Acrylodan conjugate; fluorescent response to urea
Method in brief: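 Acrylodan or Badan was attached to single-cysteine csUBP7 mutants and fluorescence was recorded over 0–4.8 M urea in 20 mM KCl, 20 mM MOPS (pH 7.4), with temperature stepped by 1K. Urea Kd came from ratiometric single-site fits, and Kd values across temperatures were fit to the Gibbs-Helmholtz equation.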

Row | Molecule | Thermostability ^apoTm [1] | also measured
1 | csUBP7: urea-binding protein from Caldicellulosiruptor saccharolyticus, C89A, SEQ ID NO: 18 (protein, csUBP7 (with signal peptide replaced with M and a GGSHHHHHH at C-terminus, and also comprising a C89A substitution)) MSSSESEKEKSEETIKVGILHSLSGTMSISEVSLKDAELMAIEEINNNGGVLGKKLEPIVEDGASDWPTFAEKAKKLLQKDKVAVIFGAWTSASRKAVLPVVEENNGLLFYPVQYEGLESSPNIFYMGAAPNQQIVPAVKWLFDNGKKRFYLLGSDYVFPRTANKIIKAYLKYLGGVVVGEEYTPLGHTDYSSVINKIKAAKPDVVFNTLNGDSNVAFFKQLKDAGIDANTLPVMSVSIAEEEIKGIGPEYLKGHLVTWNYFQSVDTPENKEFVEKYKKKYGEDRVTDDPIEAAYIGVYLWAKAVEKAGSTDVDKVREAAKGIEFNAPEGPVKIDGDNQHLYKTVRIGEILENGQIRELWKTNKPVKPDPYLKGYEWAQGLSEQGGSHHHHHH | 67 °C | –
2 | gkUBP10: urea-binding protein from Geobacillus kaustophilus with FATT domain, SEQ ID NO: 20 (protein, gkUBP10 (with signal peptide replaced with M, which is followed by a FATT domain, followed by a sequence fragment for C3 protease, and with a GGSHHHHHH at C-terminus)) MAEESDNVDSADAEEDDSDVWWGGADTDYADGSEDKVVEVAEEEEVAEVEEEEADDDEDDEDGDEVEEEAEEPYEEATERTTSIATTTTTTTESVEEVLEVLFQGPASSAVDQAKNENKKDSSSASKEGDTVKVGILHSLSGTMAISEVSLRDAELMAIEEINASGGLLGKKIEPVVEDGASDWPTFAEKAKKLLQKDQVAAIFGGWTSASRKAMLPVVEQNNGLLWYPVQYEGMESSPNIFYTGATTNQQIVPAVSWLLKNRGKTFFLLGSDYVFPRTANKIIKAQLKAEGGQVVGEEYTPLGHTDYSTIISKIKQVKPAVVFNTLNGDSNVAFFKQLKDAGITPKDVTVMSVSIAEEEIRGIGPDVLAGHLAVWNYFQTTDTPENKAFVQKYKEKYGQDRVTDDPIEAAYTAVHLWAEAVKKAGSFDVDQVKKAAAGLEYKAPEGTVKIDGETQHLWKTVRIGEIQADGQFKELWNSGQPVKPDPYLKSYPWAKGLSEGGSHHHHHHHH | >100 °C | –
3 | psUBP11: urea-binding protein from Paenibacillus sp. with FATT domain, SEQ ID NO: 21 (protein, psUBP11 (with signal peptide replaced with M, which is followed by a FATT domain, followed by a sequence fragment for C3 protease, and with a GGSHHHHHH at C-terminus)) MAEESDNVDSADAEEDDSDVWWGGADTDYADGSEDKVVEVAEEEEVAEVEEEEADDDEDDEDGDEVEEEAEEPYEEATERTTSIATTTTTTTESVEEVLEVLFQGPKETAPTAGAGNGSPPVEAAGDSIKVGILHSLSGTMAISEVSVKDAEMLAIEEINAAGGVLGKQIEPVIEDGASDWPTFAEKAGKLLQQDKVAAVFGGWTSASRKAMLPVFEQNHGLLFYPVQYEGLESSPNIFYTGATTNQQIVPSVSWLLENRGKKMFLLGSDYVFPRTANKIIKAQLTAEGGELAGEEYTPLGHTDFSTIIAKIKEAKPDIVYNTLNGDSNVAFFKQLKDAGTTSKDMTTLSVSVAEEEIRGIGADILEGHLAAWNYYQSTDTPENKAFVDKYKAKYGADRVTADPIEAGYTAVYLWKAAVEKAGTTDVDKVKEAAKGIEFAAPEGKVTIDGDNQHIHKTVRIGEVQADGQFKELWNSGEPVKPDPYLKTYDWAKGLSGEGGSHHHHHH | 80 °C | –
4 | teUBP12: urea-binding protein from Thermosynechococcus elongatus with FATT domain, SEQ ID NO: 22 (protein, teUBP12 (with signal peptide replaced with M, which is followed by a FATT domain, followed by a sequence fragment for C3 protease, and with a GGSHHHHHH at C-terminus, as well as C185A, C216A, and C481A mutations)) MAEESDNVDSADAEEDDSDVWWGGADTDYADGSEDKVVEVAEEEEVAEVEEEEADDDEDDEDGDEVEEEAEEPYEEATERTTSIATTTTTTTESVEEVLEVLFQGPGGDTIKVGILHSLSGTMAISEKSVVDATQLAIEQINQAGGVLGKQIQPILEDGASDWPTFAEKATKLIDQDKVVAVFGAWTSASRKAVLPVFESKNHMLWYPVQYEGQEASKNIFYTGAAPNQQIEPAVDWLLQNKGKKFFLVGSDYVFPRTANTIIKAQLAAKGGETVGEDYLPLGNTEVTPIITRIRNALPDGGVIFNTLNGDSNVAFFKQLQGAGLTPDKYPTMSVSIAEEEVQAIGVEYLKGHYAAWNYFMTVDTPENKSFVEAFKAKFGQNRVTNDPMEAAYIAVHLWKQAVEQAGTADDLEKVRQAAIGQTFNAPEGPVKMFANHHISKTVRIGEVGEDGLFKIVYSTPQPVDPLPWNQFVAETKGFAADWTRTDVDNPGKFKAAGAGGSHHHHHH | 84 °C | –
5 | mhUBP2: urea-binding protein from Marinobacter hydrocarbanoclasticus, SEQ ID NO: 13 (protein, mhUBP2 (with signal peptide replaced with M and a GGSHHHHHH at C-terminus, and also comprising C385A and C395A mutations)) MKVGILHSLSGTMAISETALKDTMLMLIEKQNEAGGVLGRQLEPVVVDPASNWPLFAEKARELLEKEKVDVIFGNWTSVSRKSVLPVVEELNGLLFYPVQYEGEESSENVFYTGAAPNQQAIPAVDYLMNDLGVERWVLAGTDYVYPRTTNKILETYLKDKGVAAGDIMINYTPFGHSDWQTIVSDIKKFGSAGKKTAVVSTINGDANVPFYRELGNQGISATDIPVVAFSVGEQELSGIDTAPLVGHLAAWNYFMSVDNDANYDFIDAWVAYKGDDAAVTNDPMEAHYIGFNMYVEAVKKAGTTDVDEVKDAIIGVSVPNLTGGYATMMPNHHITKPVLIGEIQDNGQFSVVWETPSTVAGDAWSDFLPGSKDLISDWRAPLRAGNFNVVTGKAGGGSADVASNGGSHHHHHH | <25^e ° C. | –
6 | bsUBP3: urea-binding protein from Bacillus sp., SEQ ID NO: 14 (protein, bsUBP3 (with signal peptide replaced with M and a GGSHHHHHH at C-terminus)) MKVGILHSLSGTMAISEVSVHDAELIAIQEINQKGGVLGKKLEPVVEDGASDWPTYAEKMRKLLQQDKVAAVFGGWTSASRKAMLPVVEQNNGLLFYPVQYEGMETSPNIFYTGATTNQQIVPAVDWLLKNKGKKFFLIGSDYVFPRTANKIIKAQVKAGGGEIAGEEYTPLGHTNYSTLVSKIKEKQPDVIFNTLNGDSNVAFFKQLKDAGISADDMPVMSASVAEEEIRGIGPDVLKGHYAVWNYFQTTNTSENQTFVKNYKKMNGDSRVTSDPIEAGYNAVYLWAAAVEKAKSFDVDKVKKAADGISFKAPGGTVKIDGDTQHLYKTVRIGQITGDGQFKEVWNSGEPVKPDPYLKTYDWAKGLSKGGSHHHHHH | 51 °C | –
7 | ctUBP6 W95C: ctUBP6 95C cysteine mutant (SEQ ID NO: 49), tested as Acrylodan and Badan conjugates (conjugate, Acrylodan or Badan conjugate; ctUBP6_95C (95C substitution mutant with signal peptide replaced with M and a GGSHHHHHH at C-terminus)) MVEEPVDNKPGTDTSAEDTIKVGILHSLSGTMAISEVSLKDAELMAIEEINQAGGLLGKKIEPVIEDGASDWPTFAEKAKKLLQNDKVATVFGCCTSASRKAVLPVFEENNGLLWYPVQYEGMESSPNIFYTGAAPNQQIVPAVEWLLENKGKRFFLLGSDYVFPRTANKIIKAQLSAIGGELIAEEYTPLGHTDYSTIVNKIKTAKPDVVFNTLNGDSNVAFFKQLKDAGITSEDITVCSVSVAEEEIRGIGAENIKGHLVSWNYYQTTDTPENKEFVEKYKSKYGSDRVTDDPIEAAYIAVHLWAEAVKKAGSFEVEKVKEAAKGLEFKAPEGLVKIEGENQHLWKPVRIGEVQEDGLIKEIWSTSEAVRPDPYLKTYDWAKGLSDGGSHHHHHH | – | Shape ([2]; ctUBP6 Acrylodan conjugate): m; Shape ([2]; ctUBP6 Badan conjugate): m; Response [3]: y
